Series [1] is described as follows: Cloud point determination (turbidity at 300 nm, 20-80° C.). Format: physicochemical. The method, then:
The cloud point of SELP47K was determined by first preparing 0.1% and 1% solutions of polydispersed SELP 47K (Example 2) in three different buffers: 50 mM acetate pH 5; 50 mM Tris pH 7; 50 mM Tris pH 9. A 0.5 M NaCl salt solution was prepared in water and salt containing solutions were prepared using this stock solution. Samples were placed in quartz cuvettes and the cloud point determination was carried out using a Cary 300 spectrophotometer equipped with a thermal program and multiple cuvettes configuration. Turbidity measurements were made at 300 nm and the temperature was varied from 20-80° C.

Series [2] concerns facial skin. The experiment in a line: Skin efficacy study: Cutometer Uv (viscoelasticity). Format: in vivo, human. The note with it: 5% aqueous solution applied once to face; 30 Minutes Post; baseline mean 0.09. An excerpt: (§1) Eleven impaneled subjects (age 35-70 years) showing clear signs of facial skin aging were provided with a non-moisturizing soap, (AVEENO®), one week prior to the study and were instructed to use the provided soap to wash the face and were required to refrain from excessive UV exposure. After a seven-day conditioning phase, subjects were acclimated to the ambient temperature and humidity for thirty minutes. One side of the face of each subject was designated as the measurement side by random selection by computer. After 30-minute acclimation period, baseline digital photographs were taken, and instrumental measurements, skin replica samples and visual evaluations were made. Photographs were taken, with a Canfield Scientific Camera, of the full face, the periorbital area, and the temporal side of eye. Chromameter (Model CR300, Minolta) measurements were taken from the periorbital area directly under the eye (Chardon et al., Int. J. Cosmet. Sci., 13:191-208 [1991]). Silflo replicas (CuDerm Corporation, Dallas, Tx) were made from the periorbital area adjacent to the temporal side of the eye (Grove et al., J. Am. Acad. Dermatol., 21:631-637 [1998]; and Sun et al 1997 IFSCC Conference, Mexico). Cutometer (SEM575, Courage and Khazaka, Germany) measurements were taken at the periorbital area at the upper portion of cheekbone. All measurements were performed in triplicate. […]

Series [3] can be described thus: Isoelectric point determination (IEF gel). Format: physicochemical. The procedure: In this Example, experiments performed to determine the isoelectric point and cloud point of SELP47K (Example 1) are described. The isoelectric point of SELP47K was determined by electrophoresing 5 mg/ml SELP47K solution using Isoelectric Focusing Electrophoresis (IEF) gel and Novex electrophoresis apparatus along with protein standards markers.

A short description of series [4]: Glass transition and decomposition temperature (DSC, DMA, TGA). Format: physicochemical. The procedure:
In this Example, experiments performed to determine the glass transition temperature (Tg) and decomposition temperature of SELP47K. (Example 1) are described. Approximately 10 mg of SELP47K material was crimped in an aluminum (Al) pan, cooled to <−150° C., then heated to >200° C. at 10° C./min under a He (helium) atmosphere. […] This initially appeared to be followed by another endothermic region and the analysis was stopped near 225° C. […] Another sample of material was examined by TGA and found to have mass loss (−8%) from room temperature to approximately 200° C., confirming the broad endotherm observed with the first sample.
A strip of SELP47K was examined by using a dynamic mechanical analyzer (DMA) over the range of −150 to 200° C. […] Another DSC sample was run, pre-heating at 100° C. for 1 hour initially to remove volatiles. The mass loss endotherm was mostly removed, and a transition at 188° C. (half-height) remained. This run was stopped and the sample cooled and examined.

Series [5] is described as follows: Water solubility of SELP47K films. Format: physicochemical. An excerpt: The coating appeared to be comprised of densely packed intertwining strands. […] Short, single/double strands of material were found in areas where the coating appeared to be less concentrated. Individual strands of material could be seen in the less concentrated, gray areas on the wafer. SEM analysis of the films provide the basis of water-solubility of SELP47K films.

Series [6] relates to facial skin. Briefly: Skin efficacy study: Chromameter a* (skin redness). Format: in vivo, human.
Source text: as §1, with “Mexico).” for “Mexico). Cutometer (SEM575, Courage and Khazaka, Germany) measurements were taken at the periorbital area at the upper portion of cheekbone. All measurements were performed in triplicate.”
Chromometer values for L*, a*, and b* were read and total color value, E, was calculated for each subject. […]

The source of these data is patent US20130059772A1, “Use of Repeat Sequence Protein Polymers in Personal Care Compositions” (DANISCO US INC., priority 2003, published 2013).

With “SELP47K: silk-elastin repeat sequence protein copolymer, head-[(GAGAGS)2(GVGVP)3GKGVP(GVGP)4(GAGAGS)2]13-tail (SEQ ID NO:19), 886 amino acids”, the cloud point in series [1] (0.1% solution, 0.5 M NaCl, irrespective of pH) is 50 °C; in series [1] (0.1% solution, pH 5), “remained soluble even at 80 °C”; in series [1] (0.1% solution, pH 9), 60 °C; in series [1] (1% solution in water), 70 °C; in series [1] (1% solution, 0.5 M salt, irrespective of pH), 55 °C; in series [1] (1% solution, 5-9 pH range) it was approximately 65 °C. Besides, the cloud point was 65 °C in series [1] (1% solution, pH 5 buffer, 0.2 M salt); “below 60 °C” in series [1] (1% solution, pH 5 buffer, 0.5 M salt); 75 °C in series [1] (1% solution, pH 5 buffer, no salt). For the same substance, the “Cutometer Uv Score, Mean” value in series [2] was 0.106. In addition, the Isoelectric Point in series [3] (5 mg/ml solution, IEF gel) is listed as 10.4. In series [3] (stated in production example), the “pI of the protein” value is on record as 10.5. Besides, the decomposition temperature in series [4] stood at 332 °C. Further, in series [4] (film material, DMA/DSC), the glass transition entry is “approximately 189 °C”. Further, the “water solubility of film” value in series [5] (film made out of 10% SELP47K solution) is recorded as “water-soluble”; in series [5] (film made out of 20% SELP47K solution), “water insoluble”. Besides, in series [6] (5% aqueous solution applied once to face, 30 Minutes Post, baseline mean 11.05), the “Chromameter a* Score, Mean” value is 10.39. The “decrease in average a* value (redness of the skin)” value in series [6] (5% aqueous solution, 30 minutes post vs baseline, p=0.024) is on record as 6%.
